Measurements: US10273305B2, “Bispecific CXCR4-CD4 polypeptides with potent anti-HIV activity” (Ablynx N.V., priority 2015, dated 2019)

What was measured:
[1] = tested on: dual-tropic R5/X4 HIV-1 HE; experiment: HIV-1 HE infection of PBMCs, p24; format: cell-based
R5 SM145 = experiment: TZM-bl luciferase assay, SM145; format: cell-based, HIV-1; details: read-out: IC50 TZM-bl R5 SM145 n = 2
R5 DJ259 = experiment: TZM-bl luciferase assay, DJ259; format: cell-based, HIV-1; details: read-out: IC50 TZM-bl R5 DJ259 n = 2
X4 HIV-1 NL4.3 WT = experiment: TZM-bl luciferase assay, NL4.3 WT; format: cell-based
R5 HIV-1 BaL virus = experiment: TZM-bl luciferase assay, BaL; format: cell-based; details: read-out: IC50 R5 HIV-1 BaL virus in TZM-bl cells
[2] = tested on: dual-tropic R5/X4 HIV-1 HE; experiment: TZM-bl luciferase assay, HE; format: cell-based
[3] = tested on: dual-tropic R5/X4 HIV-2 ROD; experiment: TZM-bl luciferase assay, HIV-2 ROD; format: cell-based
CD4 [4] = target: T1, CD4 (Homo sapiens, UniProt P01730); experiment: FACS binding of CD4 Nanobody 3F11 to human cells; details: CD8+ T cells isolated from human PBMCs
Procedure: The EC50 values results are depicted in Table 2.4. […] To confirm the specificity of the anti-CD4 Nanobody, binding of 03F11 was also assessed to cytotoxic CD8^+ T cells isolated from human PBMCs using the CD8 T Cell Isolation Kit (Miltenyi Biotech, Cat. 130-096-495), resulting in 94% purity of CD8^+ cells.

CD4 [5] = target: T1, CD4; experiment: Flow cytometry binding of purified CD4 Nanobodies to Jurkat and THP-1 cells; details: 100 nM Nanobody
Procedure: Murine Ba/F3 myeloid cells were used as negative control cells. Purified Nanobodies (100 nM) were allowed to bind to 10^5 cells for 30 minutes at 4° C. in a final volume of 100 μl of 10% FBS (Invitrogen, Cat 10270-106) in PBS (Invitrogen #14190). Bound Nanobodies were detected with mouse anti-myc antibody (Serotec, Cat#MCA2200) followed by goat anti-mouse-PE antibody (Jackson #115-115-164). Dead cells percentage population was determined by staining the cells with TOPRO3 (Molecular probes T3605). Using a BD FACS Array Bioanalyzer system, a PE filter 585/42 and a Topro filter 661/16, twenty thousand events were acquired. TOPRO3+ cells were excluded, and the mean channel fluorescence (MCF) was calculated. Expression of CD4 in Jurkat and THP-1 cells was confirmed by using 10 μg/ml of an anti-CD4 monoclonal antibody (Diaclone, clone B-A1 cat#854.030.000). Staining of the cells with anti-myc and/or the goat anti mouse-PE antibodies antibody was performed as negative controls.

[6] = target: interaction of CD4 with the viral gp120 protein (Homo sapiens, UniProt P01730); experiment: ELISA-based competition of CD4-gp120 interaction; format: binding; details: 500 nM Nanobody; gp120 HIV-1 IIIB
Procedure: Besides its role on T-cells, CD4 also serves as primary receptor for HIV entry. Therefore purified CD4 Nanobodies were analysed for the capacity to block the interaction of CD4 with the viral gp120 protein. Monovalent His-tagged Nanobodies were purified from periplasmic extracts by affinity and desalting chromatography and used in an ELISA-based competition setup. In short, 1 μg/ml of gp120 HIV-1 IIIB (Immunodiagnostic) was captured by 20 μg/ml of sheep anti-gp120 antibody D7324 (Aalto Bio Reagents) previously coated in 96 well Maxisorp microtiter plates (Nunc) and blocked with 1% casein in PBS. In parallel, 0.5 μg/ml of biotinylated CD4 was incubated with 500 nM of the different purified Nanobodies in 100 μl 0.1% Casein/PBS. After 1 hour, the biotinylated CD4-Nanobody pre-mixes were incubated 1 hour with the captured gp120. Bound biotinylated CD4 was detected using HRP-conjugated Extravidin (Sigma E2886). A blocking mouse anti-CD4 IgG2a antibody (Diaclone, clone B-A1 cat#854.030.000) was used as positive control. Blocking activity was determined as loss of O.D. signal, as compared to wells where no Nanobody was added.

HIV-1 X4 NL4.3 strain = experiment: HIV-1 NL4.3 infection of PHA-stimulated PBMCs, p24 Ag ELISA; format: cell-based
CXCR4 [7] = target: T2, CXCR4 (Homo sapiens, UniProt P61073); experiment: Inhibition of SDF-1 mediated chemotaxis; format: cell-based; details: average of 3
T2 sequence (P61073 whole entry): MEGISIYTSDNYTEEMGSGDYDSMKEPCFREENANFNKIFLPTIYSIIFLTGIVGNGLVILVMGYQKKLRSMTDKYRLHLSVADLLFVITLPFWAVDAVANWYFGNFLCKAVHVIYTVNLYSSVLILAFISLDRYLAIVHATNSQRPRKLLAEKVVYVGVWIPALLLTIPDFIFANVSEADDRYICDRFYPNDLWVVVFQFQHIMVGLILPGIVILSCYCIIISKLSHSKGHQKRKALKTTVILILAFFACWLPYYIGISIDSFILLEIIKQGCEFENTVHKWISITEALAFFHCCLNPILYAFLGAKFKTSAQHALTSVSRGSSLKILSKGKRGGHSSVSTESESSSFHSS
Procedure: As chemoattractant a concentration of 750 pM SDF-1α (R&D Systems) was used on 100,000 cells/well for the Jurkat cell line, and 500,000 cells/well for the MOLM-13 cell line. SDF-1α and serially diluted Nanobody constructs were added to the bottom of a small chemotaxis plate (Neuprobe 106-5) in a total volume of 29 μl. A chemotaxis filter membrane (ChemoTx® Disposibla, pore size 5 μm) was placed on top of the wells, ensuring that the membrane was in contact with the solution in the wells below. A Nanobody dilution (10 μl at 5× the serially diluted final concentration as below the membrane in each well) was added on top of the membrane, followed by 40 μl of cell suspension. The plates were incubated for 3 hours at 37° C. in a humidified incubator (5% CO2). After incubation, the filters were carefully removed and the cells in the well below were resuspended in the existing solution. The complete cell suspension was transferred to the corresponding wells of white polystyrene Costar plates. After this, 30 μl of Cell Titer Glo reagent (Promega G7571) was added to each well, followed by a 10 minute incubation, with shaking in the dark. Luminescence was measured (1 sec/well) using an Envision 2103 Multilabel Reader with emission filter 700 (Perkin Elmer). […]

CXCR4 [8] = target: T2, CXCR4; experiment: CXCL12-AF647 binding inhibition on SupT1 cells by flow cytometry; details: T-cells (SUPT-1)
CXCR4 [9] = target: T2, CXCR4; experiment: Inhibition of SDF-1 induced Ca2+ signaling in U87.CD4.CXCR4 cells (FLIPR); format: cell-based
HUT-78/HIV-1 NL4.3 = experiment: HIV-1-mediated cell-cell fusion, HUT-78/NL4.3 with SupT1 cells; details: read-out: IC50 cell-cell fusion
cynomolgus CD4 = cynomolgus CD4 (Macaca fascicularis, UniProt P79185); experiment: Binding of 3F11 to cynomolgus CD4+ HSC-F T cells, flow cytometry; details: HSC-F T cell line
cynomolgus CD4, sequence (P79185 26-458): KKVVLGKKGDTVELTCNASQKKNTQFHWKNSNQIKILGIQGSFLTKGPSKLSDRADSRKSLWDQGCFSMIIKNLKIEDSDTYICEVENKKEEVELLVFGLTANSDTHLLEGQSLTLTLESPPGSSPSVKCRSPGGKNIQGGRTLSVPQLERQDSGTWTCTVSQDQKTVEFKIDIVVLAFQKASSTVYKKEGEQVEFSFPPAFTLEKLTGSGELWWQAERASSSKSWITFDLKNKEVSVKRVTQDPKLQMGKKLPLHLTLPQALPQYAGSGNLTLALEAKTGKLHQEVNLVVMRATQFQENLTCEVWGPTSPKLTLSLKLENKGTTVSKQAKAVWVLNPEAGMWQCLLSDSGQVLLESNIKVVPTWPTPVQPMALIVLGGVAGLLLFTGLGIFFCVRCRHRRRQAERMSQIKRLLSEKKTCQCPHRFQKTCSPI

Row | Molecule | IC50 dual-tropic R5/X4 HIV-1 HE in PBMCs [1] | IC50 (R5 SM145) [nM] | IC50 (R5 DJ259) [µM] | IC50 X4 HIV-1 NL4.3 in TZM-bl cells (X4 HIV-1 NL4.3 WT) | IC50 (R5 HIV-1 BaL virus) [µM] | activity against R5/X4 HIV-1 HE in TZM-bl cells [2] | activity against R5/X4 HIV-2 ROD in TZM-bl cells [3] | binding to cytotoxic CD8+ T cells (CD4 [4]) | binding to CD4 expressed on a cell surface (CD4 [5]) | blocking of in vitro interaction of CD4 with gp120 [6] | IC50 HIV-1 NL4.3 in PBMC (HIV-1 X4 NL4.3 strain) | Inhibition of SDF-1a-mediated chemotaxis IC50 MOLM-13 cells (CXCR4 [7]) | IC50 of blocking CXCL12AF647 binding to CXCR4 (CXCR4 [8]) | IC50 of CXCL-12-induced Ca2+-signaling inhibition (CXCR4 [9]) | IC50 (HUT-78/HIV-1 NL4.3) [nM] | binding to cynomolgus CD4 (cynomolgus CD4)
1 | maraviroc [AMD14031] | never showed any significant anti-HIV-1 HE activity | 2820 | 7.54 | did not block | 4.2 | did not block | did not block | – | – | – | – | – | – | – | – | –
2 | 3F11: anti-CD4 Nanobody, SEQ ID NO: 20 (protein, Nanobody Sequence) VHH: EVQLVESGGGSVQPGGSLTLSCGTSGRTFNVMGWFRQAPGKEREFVAAVRWSSTGIYYTQYADSVKSRFTISRDNAKNTVYLEMNSLKPEDTAVYYCAADTYNSNPARWDGYDFRGQGTQVTVSS | not active | – | – | – | – | – | – | No binding | highest binding signal on THP-1 cells | block | weakly active | did not have any effect on SDF-1 function | did not interfere | no CXCL-12-induced Ca^2+-signaling inhibition | 2700 | cross-reactive to cynomolgus CD4
